This note sets out measurements from patent publication US20240209076A1 (KODIAK SCIENCES, published 2024).

Substitutions are numbered along the chain they refer to. Numbers in names are those of the source.

To fix the notation:
B1: anti-IL-6 antibody, heavy chain WT, light chain S28R (antibody, IgG1, V domains shown)
VH: EVQLVESGGGLVQPGGSLRLSCAASGFTFSPFAMSWVRQAPGKGLEWVAKISPGGSWTYYSDTVTGRFTFSLDTSKSTAYLQMNSLRAEDTAVYYCARQLWGYYALDIWGQGTLVTVSS
VL: DIQLTQSPSSLSASVGDRVTITCSASIRVSYMYWYQQKPGKAPKLLIYDMSNLASGVPSRFSGSGSGTDFTLTISSLQPEDFATYYCMQWSGYPYTFGQGTKVEIK
notes: Full IgG1 tested; V domains derived as in m2
B2: anti-IL-6 antibody, heavy chain T63K, light chain WT (antibody, IgG1, V domains shown)
VH: B1 VH with T63K
VL: B1 VL with R28S
notes: as for B1
B3: anti-IL-6 antibody, heavy chain Y103D, light chain WT (antibody, IgG1, V domains shown)
VH: B1 VH with Y103D
VL: B1 VL with R28S
notes: as for B1
B4: anti-IL-6 antibody, heavy chain WT, light chain S26K (antibody, IgG1, V domains shown)
VH: B1 VH
VL: B1 VL with S26K, R28S
notes: as for B1
B5: anti-IL-6 antibody, heavy chain V48Q, light chain WT (antibody, IgG1, V domains shown)
VH: B1 VH with V48Q
VL: B1 VL with R28S
notes: as for B1
B6: anti-IL-6 antibody, heavy chain T65G, light chain WT (antibody, IgG1, V domains shown)
VH: B1 VH with T65G
VL: B1 VL with R28S
notes: as for B1
B7: anti-IL-6 antibody, heavy chain T63E, light chain WT (antibody, IgG1, V domains shown)
VH: B1 VH with T63E
VL: B1 VL with R28S
notes: as for B1
B8: anti-IL-6 antibody, heavy chain WT, light chain S26G (antibody, IgG1, V domains shown)
VH: B1 VH
VL: B1 VL with S26G, R28S
notes: as for B1
B9: anti-IL-6 antibody, heavy chain T63Q, light chain WT (antibody, IgG1, V domains shown)
VH: B1 VH with T63Q
VL: B1 VL with R28S
notes: as for B1
B10: anti-IL-6 antibody, heavy chain Y103S, light chain WT (antibody, IgG1, V domains shown)
VH: B1 VH with Y103S
VL: B1 VL with R28S
notes: as for B1
B11: anti-IL-6 antibody, heavy chain WT, light chain S28E (antibody, IgG1, V domains shown)
VH: B1 VH
VL: B1 VL with R28E
notes: as for B1
B12: anti-IL-6 antibody, heavy chain WT, light chain S24P (antibody, IgG1, V domains shown)
VH: B1 VH
VL: B1 VL with S24P, R28S
notes: as for B1
B13: anti-IL-6 antibody, heavy chain V48I, light chain WT (antibody, IgG1, V domains shown)
VH: B1 VH with V48I
VL: B1 VL with R28S
notes: as for B1
B14: anti-IL-6 antibody, heavy chain Y103E, light chain WT (antibody, IgG1, V domains shown)
VH: B1 VH with Y103E
VL: B1 VL with R28S
notes: as for B1
B15: anti-IL-6 antibody, heavy chain WT, light chain S24K (antibody, IgG1, V domains shown)
VH: B1 VH
VL: B1 VL with S24K, R28S
notes: as for B1
B16: anti-IL-6 antibody, heavy chain WT, light chain S24V (antibody, IgG1, V domains shown)
VH: B1 VH
VL: B1 VL with S24V, R28S
notes: as for B1
B17: anti-IL-6 antibody, heavy chain T63G, light chain WT (antibody, IgG1, V domains shown)
VH: B1 VH with T63G
VL: B1 VL with R28S
notes: as for B1
B18: anti-IL-6 antibody, heavy chain Y104V, light chain WT (antibody, IgG1, V domains shown)
VH: B1 VH with Y104V
VL: B1 VL with R28S
notes: as for B1
B19: anti-IL-6 antibody, heavy chain T65Y, light chain WT (antibody, IgG1, V domains shown)
VH: B1 VH with T65Y
VL: B1 VL with R28S
notes: as for B1
B20: anti-IL-6 antibody, heavy chain V64A, light chain WT (antibody, IgG1, V domains shown)
VH: B1 VH with V64A
VL: B1 VL with R28S
notes: as for B1
B21: anti-IL-6 antibody, heavy chain WT, light chain S24I (antibody, IgG1, V domains shown)
VH: B1 VH
VL: B1 VL with S24I, R28S
notes: as for B1
B22: anti-IL-6 antibody, heavy chain WT, light chain S26H (antibody, IgG1, V domains shown)
VH: B1 VH
VL: B1 VL with S26H, R28S
notes: as for B1
B23: Anti-IL-6 antibody, heavy chain S35H, G66D / light chain WT (antibody, IgG1, V domains shown)
VH: B1 VH with S35H, G66D
VL: B1 VL with R28S
notes: IgG1; variable domains only
B24: Anti-IL-6 antibody, heavy chain S35H, G66D, L100E / light chain WT (antibody, IgG1, V domains shown)
VH: B1 VH with S35H, G66D, L100E
VL: B1 VL with R28S
notes: IgG1; variable domains only
B25: Anti-IL-6 antibody, heavy chain S35H, G66D, L100D / light chain M32L, M50D, N52S, M88Q (antibody, IgG1, V domains shown)
VH: B1 VH with S35H, G66D, L100D
VL: B1 VL with R28S, M32L, M50D, N52S, M88Q
notes: IgG1; variable domains only; VL is variant III
B26: Anti-IL-6 antibody, heavy chain S35H, G66D, L100A / light chain WT (antibody, IgG1, V domains shown)
VH: B1 VH with S35H, G66D, L100A
VL: B1 VL with R28S
notes: IgG1; variable domains only
B27: Anti-IL-6 antibody, heavy chain S35H, G66D, L100E / light chain M32L, M50D, N52S, M88Q (antibody, IgG1, V domains shown)
VH: B1 VH with S35H, G66D, L100E
VL: B1 VL with R28S, M32L, M50D, N52S, M88Q
notes: as for B25
B28: Anti-IL-6 antibody, heavy chain G66D / light chain M32L, M50D, N52S, M88Q (antibody, IgG1, V domains shown)
VH: B1 VH with G66D
VL: B1 VL with R28S, M32L, M50D, N52S, M88Q
notes: as for B25
B29: Anti-IL-6 antibody, heavy chain S35H, G66D, L100D / light chain WT (antibody, IgG1, V domains shown)
VH: B1 VH with S35H, G66D, L100D
VL: B1 VL with R28S
notes: IgG1; variable domains only
B30: Anti-IL-6 antibody, heavy chain G66D / light chain WT (antibody, IgG1, V domains shown)
VH: B1 VH with G66D
VL: B1 VL with R28S
notes: IgG1; variable domains only

Chain of human IL-6 (P05231 30-212 limits assumed): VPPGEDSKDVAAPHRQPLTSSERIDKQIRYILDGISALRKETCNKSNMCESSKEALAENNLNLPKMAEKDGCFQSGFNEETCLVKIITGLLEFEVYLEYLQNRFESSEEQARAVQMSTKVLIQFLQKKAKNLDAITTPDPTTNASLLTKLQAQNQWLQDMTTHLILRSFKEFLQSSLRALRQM

For one assay, the target named is T1, recombinant human IL-6 (human, UniProt P05231 30-212).
T1 construct: Flowed in solution over the captured antibodies
T1 sequence (P05231 30-212 limits assumed): as above
In words: SPR (Biacore), supernatant IgG on Protein A, 25 C. As for the experimental part:
Antibodies were captured on a Protein A chip (GE) by injecting 1:20 dilution of cell supernatant at 10 μL/min for 60 seconds. […] The sensor chip was regenerated by a 60 seconds injection of 10 mM Glycine pH 1.7 at flow rate of 50 μL/min. […] For this setup, 1 μg/mL of purified antibody was injected over a Protein A chip at 10 μL/min for 25-28 seconds. Data analysis for supernatant and purified samples were performed using BIAevaluation software (GE). All sensorgrams were double reference subtracted and fit using a 1:1 Langmuir binding model.
Regarding B1, the dissociation constant Kd amounted to 0.464 nM, the koff came out at 0.000171 s⁻¹ and the kon is 369000 M⁻¹ s⁻¹.
The corresponding values for B2 are 0.388 nM, 0.000212 s⁻¹ and 546000 M⁻¹ s⁻¹.
The like results for B3 were, in that order, 0.297 nM, 0.000219 s⁻¹ and 737000 M⁻¹ s⁻¹.
Regarding B4, the Kd is 0.433 nM, the koff was 0.000164 s⁻¹ and the kon came out at 379000 M⁻¹ s⁻¹.
The like results for B5 were, in that order, 0.21 nM, 0.000138 s⁻¹ and 654000 M⁻¹ s⁻¹.
Take B6: the dissociation constant Kd was found to be 0.0954 nM, the off-rate (koff) stood at 5.69e-05 s⁻¹ and the kon was found to be 597000 M⁻¹ s⁻¹.
The corresponding values for B7 are 0.445 nM, 0.000169 s⁻¹ and 380000 M⁻¹ s⁻¹.
The like results for B8 were, in that order, 0.281 nM, 0.000223 s⁻¹ and 793000 M⁻¹ s⁻¹.
For B9, the Kd is 0.594 nM, the off-rate constant (koff) came to 0.000184 s⁻¹ and the kon is 309000 M⁻¹ s⁻¹.
In the case of B10, the Kd turned out to be 0.423 nM, the koff is 0.000231 s⁻¹ and the kon came to 546000 M⁻¹ s⁻¹.
The corresponding values for B11 are 0.289 nM, 0.000121 s⁻¹ and 420000 M⁻¹ s⁻¹.
The corresponding values for B12 are 0.00551 nM, 2.67e-06 s⁻¹ and 484000 M⁻¹ s⁻¹.
Regarding B13, the dissociation constant (Kd) came out at 0.346 nM, the koff is 0.000159 s⁻¹ and the on-rate (kon) was found to be 460000 M⁻¹ s⁻¹.
As to B14, the Kd worked out at 0.229 nM, the koff was found to be 0.000165 s⁻¹ and the kon worked out at 718000 M⁻¹ s⁻¹.
Consider B15, for which the Kd worked out at 0.424 nM, the koff worked out at 0.000132 s⁻¹ and the kon was determined as 311000 M⁻¹ s⁻¹.
The like results for B16 were, in that order, 0.403 nM, 0.000137 s⁻¹ and 340000 M⁻¹ s⁻¹.
For B17, the dissociation constant (Kd) was 0.404 nM, the koff is 0.000209 s⁻¹ and the kon amounted to 517000 M⁻¹ s⁻¹.
With B18, the Kd was found to be 1.34 nM, the koff came out at 0.000703 s⁻¹ and the kon was 525000 M⁻¹ s⁻¹.
The like results for B19 were, in that order, 0.275 nM, 0.000206 s⁻¹ and 749000 M⁻¹ s⁻¹.
The like results for B20 were, in that order, 0.402 nM, 0.000178 s⁻¹ and 444000 M⁻¹ s⁻¹.
As to B21, the Kd is 0.284 nM, the koff turned out to be 0.000135 s⁻¹ and the kon turned out to be 476000 M⁻¹ s⁻¹.
Take B22: the Kd was 0.36 nM, the koff is 0.000149 s⁻¹ and the kon is 415000 M⁻¹ s⁻¹.

The next assay concerns the target human IL-6 (human, UniProt P05231 30-212). Put plainly: SPR Biacore, supernatant, Protein A capture, 37 C. As for the experimental part:
Those four positions were selected based on their tolerance for mutations as observed in bacterial and mammalian screens. […] These cultures were centrifuged and supernatants containing secreted antibodies were harvested and diluted in HBS-EP+ running buffer (1:20 ratio).
Antibodies were captured on a Protein A chip (GE) by injecting 1:20 cell supernatant dilutions at 10 μL/min for 60 seconds. […] The sensor chip was regenerated by a 60 seconds injection of 10 mM Glycine pH 1.7 at the flow rate of 50 μL/min. […] For this setup, 1 μg/mL of purified antibody was injected over a Protein A chip at 10 μL/min for 25 seconds. […] The sensor chip was regenerated by a 60 seconds injection of 10 mM Glycine pH 1.7 at flow rate of 50 μL/min. Data analysis for supernatant and purified samples were performed using BIAevaluation software (GE). All sensorgrams were double reference subtracted and fit using a 1:1 Langmuir binding model.
The molecule B23 gave a dissociation constant Kd of 0.374 nM, a koff of 0.000548 s⁻¹ and a kon of 1.46e+06 M⁻¹ s⁻¹.
Take B24: the dissociation constant (Kd) stood at 0.766 nM, the koff came out at 0.000869 s⁻¹ and the kon was found to be 1.13e+06 M⁻¹ s⁻¹.
In turn, B25 came in with a Kd of 0.35 nM, a koff of 0.00202 s⁻¹ and a kon of 5.77e+06 M⁻¹ s⁻¹.
B26 showed a dissociation constant (Kd) of 0.184 nM, a koff of 0.000833 s⁻¹ and a kon of 4.52e+06 M⁻¹ s⁻¹.
Regarding B27, binding was put at a Kd of 0.704 nM, the koff stood at 0.00145 s⁻¹ and the kon amounted to 2.05e+06 M⁻¹ s⁻¹.
The corresponding values for B28 are 0.393 nM, 0.000654 s⁻¹ and 1.66e+06 M⁻¹ s⁻¹.
As for B29, the Kd stood at 0.447 nM, the koff came out at 0.000799 s⁻¹ and the kon worked out at 1.79e+06 M⁻¹ s⁻¹.
For the molecule B30, the affinity, expressed as Kd, was 0.296 nM; the koff is 0.00048 s⁻¹; the kon amounted to 1.62e+06 M⁻¹ s⁻¹.
